± gives the standard deviation of the averaged measurements.
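Also: ATP exposure 15 min at 22 °C before imaging.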

The test system of the series is ATP. Briefly: switch fluorescence ratio, 500 uM ATP over buffer (Cy3 cluster intensity, sum of 5 cycles each) (fold (ratio)); higher = stronger signal-on switching upon ATP binding; sequences stand for … in TCGTCGGCAGCGTCAGATGTGTATAAGAGACAGTTTTTTTTTTTTTTTTTTTTTTTTT…TC. To be noted: aptamer strand: ATP DNA aptamer (quencher-CACCTGGGGGAGTATTGCGGAGGAAGG + anchor), 100 nM annealed; ATP concentration: 500 uM. The essentials: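 Cy3-labelled switching-strand clusters on a modified Illumina MiSeq flow-cell were annealed to 100 nM quencher-labelled ATP aptamer and imaged first in selection buffer, then after 15 min with 500 uM ATP at 22 °C. NaOH stripping and re-annealing separated each of five buffer/ATP cycles, and clusters outside 100-1000 RFU were excluded. The fluorescence ratio sums target-cycle Cy3 intensity over buffer-cycle Cy3 intensity per cluster and averages it per switch-domain sequence.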
Turning to AATAATGTGC, the switch fluorescence ratio was found to be 0.987 ± 0.074. The value for CTTGAGCAGG was 1.2 ± 0.038; that for ATAGAATGCG was 0.9955 ± 0.0012. The result for TTTTCTATTG reads 1 ± 0.044; that for CCATGGCGGG, 0.97 ± 0.028. Take TTGGATTTTG: the switch fluorescence ratio was found to be 0.978 ± 0.043.

As for CTGTCTGGGT, the switch fluorescence ratio amounted to 0.993 ± 0.029. The result for GACGGGCGGC reads 0.984 ± 0.02; that for GATCGAAGGG, 0.9849 ± 0.0079; that for TGGGAGTCGG, 1.01 ± 0.035. On to GGCAATCACC, for which the switch fluorescence ratio was 1.402 ± 0.0063. As to TACCGTTGGG, the switch fluorescence ratio came out at 1.01 ± 0.038. Take ACAGTTAATA: the switch fluorescence ratio was 1.06 ± 0.018. Regarding GGCGCACGGG, the switch fluorescence ratio was found to be 1.02 ± 0.026. The result for AACAGGTTTT reads 1.003 ± 0.0062; that for CCGCGGCGAA, 1.47 ± 0.22; that for AAGAGATGTG, 0.985 ± 0.024.

For the sequence ATTTGTTGCA, the switch fluorescence ratio is 1.0298 ± 0.00091. Take CGGGGTTCGA: the switch fluorescence ratio worked out at 1 ± 0.011. For AGGGTAGATA, the switch fluorescence ratio worked out at 1 ± 0.044. The value for ATTTGAATTG was 1.02 ± 0.03; that for CATTATGCTT was 0.9864 ± 0.0014; that for TTGTGGGATA was 1.01 ± 0.011. The value for GGTGTTGGGG was 1.0211 ± 3.7e-05; that for CGGTCAACG was 0.993 ± 0.022. The value for TGAGGAATGT was 1.0157 ± 0.00058; that for AAAGAGGGTG was 1.1 ± 0.058. In the case of CGCTGGGGAT, the switch fluorescence ratio amounted to 1.04 ± 0.027. As for GTCGCCGACC, the switch fluorescence ratio was determined as 0.996 ± 0.038. The result for GTAAGAGGGG reads 1.02 ± 0.03. As for TTGTTACAGA, the switch fluorescence ratio came to 1.004 ± 0.0078.

As for TTATTTAATT, the switch fluorescence ratio is 0.998 ± 0.027. The value for ATTCTTAGGG was 1.12 ± 0.27; that for TGTTTAGGGG was 1.01 ± 0.025. The result for AAGCTTGGCT reads 0.965 ± 0.028; that for GGGCTGTTTG, 0.95379 ± 2.9e-05.

As to AAAGGGGTTT, the switch fluorescence ratio was found to be 1.02 ± 0.022.

As to CGAATATAGC, the switch fluorescence ratio was found to be 1.02 ± 0.015. For GATTCGGGCG, the switch fluorescence ratio was 1 ± 0.069. The value for GGCTCCGGGG was 1.03 ± 0.024. With TCGAGCCCCA, the switch fluorescence ratio worked out at 1.04 ± 0.087. Regarding GGTTAAGGGG, the switch fluorescence ratio came out at 1.05 ± 0.13. Turning to ACCTGTGAGT, the switch fluorescence ratio was determined as 0.9909 ± 0.0019. With TGGTTTTTAG, the switch fluorescence ratio stood at 1.05 ± 0.033. The value for GTAGACGGGT was 1.03 ± 0.031; that for CAAAGCTGGG was 1.05 ± 0.05; that for CCATACGTCA was 1.25 ± 0.054. Turning to GATGAAACGT, the switch fluorescence ratio is 1.06 ± 0.045. The value for TCTTTTACTG was 1.01 ± 0.033; that for ACCAGCTTTT was 1.04 ± 0.03; that for TTAGGTCGGT was 1.01 ± 0.0094. The value for GAGCAGGTTT was 1.6 ± 0.92; that for GATTTCCGTG was 0.98686 ± 0.00065. The value for AATGGTGAGG was 1.05 ± 0.051. As to TTATAGTCAT, the switch fluorescence ratio turned out to be 0.965 ± 0.027. Regarding TCAGGCGTGA, the switch fluorescence ratio was found to be 0.987 ± 0.035. The result for ATGGAGGTTA reads 0.9695 ± 0.0085; that for ATTCATGGGG, 0.98 ± 0.019; that for TTCATTGGGG, 0.99 ± 0.018.

For the sequence GGATGAGTTA, the switch fluorescence ratio was 0.983 ± 0.015.

For the sequence AATGCATGGG, the switch fluorescence ratio was 0.989 ± 0.046. The result for TATTAACATC reads 1.04 ± 0.014; that for TTTATTCCTT, 1.02 ± 0.018. The result for AATAAAAGTT reads 1.1 ± 0.14; that for AATAAGATTT, 1.02 ± 0.026. The value for TAGAGTGATG was 0.943 ± 0.013.

Values taken from the supplement of paper PMC10126150.
